Test results published in paper PMC4937676 (Asia Oceania Journal of Nuclear Medicine and Biology, 2016).
Read-outs that look alike come from different tables or passages of the source.

Key:
in vivo = conditions: male, Syrian, rat, iv, 5.55 MBq, total radioactivity, Percentage of injected dose per gram (%ID/g)
[1] = cited from earlier work
Experimental: In this regard, in a study by Ugur et al., the absorbed dose of kidneys was calculated to be 1090 mGy/MBq, based on biodistribution studies on AR42J rat pancreatic tumors ([2]), whereas an absorbed dose of 0.082 mGy/MBq was reported in kidneys of patients with disseminated neuroendocrine tumors ([37]). However, the absorbed dose of the pancreas as a somatostatin receptor-positive organ was not evaluated in previous research. || As mentioned earlier, the dose delivered to the pancreas has not been evaluated in previous literature. […] On the other hand, the absorbed dose of adrenal glands was somewhat lower than the value reported in the mentioned study, while being in great accordance with the absorbed dose of liver after ^68Ga-DOTATATE injection (0.015 mGy/MBq) in a study by Walker et al. ([41]). || In the present study, the effective absorbed dose was calculated at 0.026 mSv/MBq, which was higher than the value reported by Sandstrom and colleagues (0.021 mSv/MBq). The lower effective absorbed dose in the mentioned study corresponded to lower organ consideration for dosimetric calculations, compared to the present study. Finally, the dose received by critical organs was well within the acceptable range for diagnostic nuclear medicine procedures ([31], [42]).

[2] = design: species or system human
Experimental: The accumulated source activity for each animal organ was calculated according to Equation 4, where A (t) is the activity of each organ at time t: For this purpose, data points representing the non-decay corrected percentage of the injected dose were created. A linear approximation was applied between the two experimental points of time. The curves were extrapolated to infinity by fitting the tail of each curve to a mono-exponential curve with an exponential coefficient equal to the physical decay constant of ^68Ga. The accumulated activity in animals was calculated by computing the area under the curves, extrapolated to the accumulated activity in human organs, using a method proposed by Sparks et al. (Equation 5) and the standard mean weight of each human organ ([21], [22], [23]): The absorbed dose in human organs was calculated by the Radiation Absorbed Dose Assessment Resource (RADAR) formalism, based on the biodistribution data in rats ([22]): In the equation above, ni is the number of radiations with energy E emitted per nuclear transition, Ei is the energy per radiation (MeV), Qi is the fraction of emitted energy absorbed by the target, m is the mass of the target region (kg) and k is the proportionality constant [drawing 8] DF represents the physical decay characteristics of the radionuclide, the range of emitted radiations and the organ size and configuration, expressed in mGy/MBq.s ([24]). In this study, DF values were obtained from OLINDA/EXM software ([22]). The effective absorbed dose in each organ was calculated, using the following formula: […] where HT is the equivalent absorbed dose in each organ and WT is the tissue-weighing factor, which represents a subjective balance between different stochastic health risks ([25]). WT was obtained from the International Commission on Radiological Protection (ICRP) publication 103 ([26]).

[3] = Biodistribution in Syrian rats after intravenous injection; conditions: male Syrian rats; for Percentage of injected dose per gram (%ID/g), Blood / Percentage of injected dose per gram (%ID/g), Bone / Percentage of injected dose per gram (%ID/g), Intestine / Percentage of injected dose per gram (%ID/g), Kidneys / Percentage of injected dose per gram (%ID/g), Liver / Percentage of injected dose per gram (%ID/g), Spleen / Percentage of injected dose per gram (%ID/g), Stomach: 5.55 MBq i.v. tail vein, mean ± SD, n = 4
[4] = 5.55 MBq i.v., maximum over 15-120 min, time not stated

C[C@@H](O)[C@@H]1NC(=O)[C@H](CCCCN)NC(=O)[C@@H](Cc2c[nH]c3ccccc23)NC(=O)[C@H](Cc2ccc(O)cc2)NC(=O)[C@@H](NC(=O)[C@@H](Cc2ccccc2)NC(=O)CN2CCN(CC(=O)O)CCN(CC(=O)O)CCN(CC(=O)O)CC2)CSSC[C@@H](C(=O)N[C@H](CO)[C@@H](C)O)NC1=O [^68Ga-DOTATOC, Gallium-68 DOTA-DPhe^1-Tyr^3-Octreotide, metal not drawn]
tissue uptake at 0.25 h (in vivo; Adrenal): 0.91 ± 0.05 %ID/g | tissue uptake at 0.5 h (in vivo; Adrenal): 0.75 ± 0.06 %ID/g | tissue uptake at 1 h (in vivo; Adrenal): 0.6 ± 0.04 %ID/g | tissue uptake at 2 h (in vivo; Adrenal): 0.44 ± 0.01 %ID/g | tissue uptake at 0.25 h (in vivo; Blood): 4.51 ± 0.21 %ID/g | tissue uptake at 0.5 h (in vivo; Blood): 1.98 ± 0.15 %ID/g | tissue uptake at 1 h (in vivo; Blood): 1.53 ± 0.11 %ID/g | tissue uptake at 0.25 h (in vivo; Bone): 0.95 ± 0.08 %ID/g | tissue uptake at 0.5 h (in vivo; Bone): 0.58 ± 0.03 %ID/g | tissue uptake at 2 h (in vivo; Bone): 0.05 %ID/g | tissue uptake at 0.25 h (in vivo; Heart): 1.68 ± 0.08 %ID/g | tissue uptake at 0.5 h (in vivo; Heart): 1.01 ± 0.07 %ID/g | tissue uptake at 1 h (in vivo; Heart): 0.73 ± 0.07 %ID/g | tissue uptake at 2 h (in vivo; Heart): 0.03 %ID/g | tissue uptake at 0.25 h (in vivo; Intestine): 0.48 ± 0.06 %ID/g | tissue uptake at 0.5 h (in vivo; Intestine): 0.56 ± 0.05 %ID/g | tissue uptake at 1 h (in vivo; Intestine): 0.39 ± 0.04 %ID/g | tissue uptake at 2 h (in vivo; Intestine): 0.38 ± 0.04 %ID/g | tissue uptake at 0.25 h (in vivo; Kidneys): 11.9 ± 0.21 %ID/g | tissue uptake at 0.5 h (in vivo; Kidneys): 8.99 ± 0.13 %ID/g | tissue uptake at 1 h (in vivo; Kidneys): 8 ± 0.18 %ID/g | tissue uptake at 2 h (in vivo; Kidneys): 2.51 ± 0.1 %ID/g | tissue uptake at 0.25 h (in vivo; Liver): 0.79 ± 0.09 %ID/g | tissue uptake at 0.5 h (in vivo; Liver): 0.58 ± 0.08 %ID/g | tissue uptake at 1 h (in vivo; Liver): 0.46 ± 0.03 %ID/g | tissue uptake at 2 h (in vivo; Liver): 0.2 %ID/g | tissue uptake at 0.25 h (in vivo; Lung): 0.35 ± 0.06 %ID/g | tissue uptake at 1 h (in vivo; Lung): 0.13 ± 0.01 %ID/g | tissue uptake at 2 h (in vivo; Lung): 0.02 %ID/g | tissue uptake at 0.25 h (in vivo; Muscle): 0.4 ± 0.05 %ID/g | tissue uptake at 2 h (in vivo; Muscle): 0.02 %ID/g | tissue uptake at 0.25 h (in vivo; Pancreas): 12.8 ± 0.28 %ID/g | tissue uptake at 0.5 h (in vivo; Pancreas): 9.55 ± 0.18 %ID/g | tissue uptake at 1 h (in vivo; Pancreas): 6.62 ± 0.22 %ID/g | tissue uptake at 2 h (in vivo; Pancreas): 5.31 ± 0.15 %ID/g | tissue uptake at 0.25 h (in vivo; Salivary gland): 1.22 ± 0.1 %ID/g | tissue uptake at 0.5 h (in vivo; Salivary gland): 0.77 ± 0.04 %ID/g | tissue uptake at 1 h (in vivo; Salivary gland): 0.54 ± 0.03 %ID/g | tissue uptake at 1 h (in vivo; Skin): 0.08 %ID/g | tissue uptake at 2 h (in vivo; Skin): 0.03 %ID/g | tissue uptake at 0.25 h (in vivo; Spleen): 0.38 ± 0.04 %ID/g | tissue uptake at 0.5 h (in vivo; Spleen): 0.93 ± 0.07 %ID/g | tissue uptake at 1 h (in vivo; Spleen): 0.16 ± 0.02 %ID/g | tissue uptake at 2 h (in vivo; Stomach): 0.17 ± 0.02 %ID/g | tissue uptake at 1 h (in vivo; Thyroid): 0.16 ± 0.04 %ID/g | Absorbed dose of kidneys [1]: 0.082 mGy/MBq | Effective absorbed dose [1]: 0.021 mSv/MBq | Effective absorbed dose [2]: 0.026 mSv/MBq | Equivalent absorbed dose in humans, Adrenals [2]: 0.010 mGy/MBq | Equivalent absorbed dose in humans, Bone Surf [2]: 0.008 mGy/MBq | Equivalent absorbed dose in humans, Heart [2]: 0.004 mGy/MBq | Equivalent absorbed dose in humans, Kidneys [2]: 0.074 mGy/MBq | Equivalent absorbed dose in humans, Liver [2]: 0.010 mGy/MBq | Equivalent absorbed dose in humans, Lungs [2]: 0.001 mGy/MBq | Equivalent absorbed dose in humans, Red Marrow [2]: 0.003 mGy/MBq | Equivalent absorbed dose in humans, Small Intestine [2]: 0.008 mGy/MBq | Equivalent absorbed dose in humans, Spleen [2]: 0.009 mGy/MBq | Equivalent absorbed dose in humans, Stomach [2]: 0.003 mGy/MBq | Equivalent absorbed dose in humans, Total Body [2]: 0.008 mGy/MBq

[Cl][68Ga]([Cl])[Cl] [^68GaCl3]
Percentage of injected dose per gram (%ID/g), Blood ([3]; 15 min after injection): 3.18±0.17 %ID/g | Percentage of injected dose per gram (%ID/g), Bone ([3]; 15 min after injection): 0.56±0.06 %ID/g | Percentage of injected dose per gram (%ID/g), Intestine ([3]; 15 min after injection): 0.71±0.06 %ID/g | Percentage of injected dose per gram (%ID/g), Kidneys ([3]; 15 min after injection): 0.70±0.09 %ID/g | Percentage of injected dose per gram (%ID/g), Liver ([3]; 15 min after injection): 0.91±0.02 %ID/g | Percentage of injected dose per gram (%ID/g), Spleen ([3]; 15 min after injection): 0.51±0.09 %ID/g | Percentage of injected dose per gram (%ID/g), Stomach ([3]; 15 min after injection): 0.41±0.11 %ID/g | Percentage of injected dose per gram (%ID/g), Blood ([3]; 30 min after injection): 2.98±0.12 %ID/g | Percentage of injected dose per gram (%ID/g), Bone ([3]; 30 min after injection): 0.91±0.10 %ID/g | Percentage of injected dose per gram (%ID/g), Intestine ([3]; 30 min after injection): 0.82±0.08 %ID/g | Percentage of injected dose per gram (%ID/g), Kidneys ([3]; 30 min after injection): 0.41±0.10 %ID/g | Percentage of injected dose per gram (%ID/g), Liver ([3]; 30 min after injection): 1.50±0.12 %ID/g | Percentage of injected dose per gram (%ID/g), Spleen ([3]; 30 min after injection): 0.70±0.06 %ID/g | Percentage of injected dose per gram (%ID/g), Stomach ([3]; 30 min after injection): 0.56±0.07 %ID/g | Percentage of injected dose per gram (%ID/g), Blood ([3]; 60 min after injection): 2.53±0.11 %ID/g | Percentage of injected dose per gram (%ID/g), Bone ([3]; 60 min after injection): 1.20±0.11 %ID/g | Percentage of injected dose per gram (%ID/g), Intestine ([3]; 60 min after injection): 0.89±0.05 %ID/g | Percentage of injected dose per gram (%ID/g), Kidneys ([3]; 60 min after injection): 1.42±0.12 %ID/g | Percentage of injected dose per gram (%ID/g), Liver ([3]; 60 min after injection): 0.78±0.08 %ID/g | Percentage of injected dose per gram (%ID/g), Spleen ([3]; 60 min after injection): 1.03±0.10 %ID/g | Percentage of injected dose per gram (%ID/g), Stomach ([3]; 60 min after injection): 1.21±0.09 %ID/g | Percentage of injected dose per gram (%ID/g), Blood ([3]; 120 min after injection): 2.44±0.14 %ID/g | Percentage of injected dose per gram (%ID/g), Bone ([3]; 120 min after injection): 1.05±0.09 %ID/g | Percentage of injected dose per gram (%ID/g), Intestine ([3]; 120 min after injection): 0.61±0.07 %ID/g | Percentage of injected dose per gram (%ID/g), Kidneys ([3]; 120 min after injection): 0.91±0.08 %ID/g | Percentage of injected dose per gram (%ID/g), Liver ([3]; 120 min after injection): 0.60±0.05 %ID/g | Percentage of injected dose per gram (%ID/g), Spleen ([3]; 120 min after injection): 1.43±0.12 %ID/g | Percentage of injected dose per gram (%ID/g), Stomach ([3]; 120 min after injection): 1.54±0.14 %ID/g | Activity content in the bone, maximum value [3, 4]: 1.20 %ID/g | Activity content in the stomach, maximum value [3, 4]: 1.54 %ID/g
